Laboratory results: PMC8504119

Biological target: tetrameric biotin non-binding streptavidin 'Dead' (SA-4D) (UniProt P22629)
Assay: SDS-PAGE without boiling; refolded, purified SA-A and SA-D; samples not subjected to thermal denaturation keep the tetramer

Substance: tetrameric biotin non-binding streptavidin 'Dead' (SA-4D) (from UniProt P22629 25-183) (natural protein)
- stoichiometry N: 4
